B1: biAb0001 (bispecific antibody, human IgG4 S228P, kappa)
heavy 1: QVQLQESGPGLVKPSQTLSLTCTVSGYSISSDSAWSWIRQPPGKGLEWIGYIQYSGSTNYNPSLKSRVTISRDTSKNQFSLKLSSVTAADTAVYYCARSVNYYGNSFAVGYWGQGTLVTVSSASTKGPSVFPLAPCSRSTSESTAALGCLVKDYFPEPVTVSWNSGALTSGVHTFPAVLQSSGLYSLSSVVTVPSSSLGTKTYTCNVDHKPSNTKVDKRVESKYGPPCPPCPAPEFLGGPSVFLFPPKPKDTLMISRTPEVTCVVVDVSQEDPEVQFNWYVDGVEVHNAKTKPREEQFNSTYRVVSVLTVLHQDWLNGKEYKCKVSNKGLPSSIEKTISKAKGQPREPQVYTLPPSQEEMTKNQVSLTCLVKGFYPSDIAVEWESNGQPENNYKTTPPVLDSDGSFLLYSKLTVDKSRWQEGNVFSCSVMHEALHNHYTQKSLSLSLGK
light 1: EIVLTQSPATLSLSPGERATLSCRASQGISDYLHWYQQKPGEAPRLLIKYTSQPATGIPARFSGSGSGTDFTLTISSLEPEDFAVYYCQNGHSFPLTFGQGTKLEIKRTVAAPSVFIFPPSDEQLKSGTASVVCLLNNFYPREAKVQWKVDNALQSGNSQESVTEQDSKDSTYSLSSTLTLSKADYEKHKVYACEVTHQGLSSPVTKSFNRGEC
heavy 2: not shown
light 2: DIVMTQTPLSSPVTLGQPASISCRSSQSLVHRQGNTYFHWLQQRPGQPPRLLIYKVSNRFSGVPDRFSGSGAGTDFTLKISRVEAEDVGVYYCSQSTHVPYTFGQGTKLEIKRTVAAPSVFIFPPSDEQLKSGTASVVCLLNNFYPREAKVQWKVDNALQSGNSQESVTEQDSKDSTYSLSSTLTLSKADYEKHKVYACEVTHQGLSSPVTKSFNRGEC
notes: also called anti-FVII(a)/anti-TLT-1 bispecific antibody of mAb0865 and mAb1076
B2: biAb0245 (bispecific antibody, human IgG4 S228P, kappa)
heavy 1: B1 heavy 1 with Q1D, A108W, G110D, Y111P
light 1: DIVMTQSPATLSVTAGDRVSLSCRASQGISDYLHWYQQKSHESPRLLIKYTSQPVSGIPSRFSGSGSGSEFTLSINSVEPEDVGVYYCQNGHSFPLTFGAGTKLELKRTVAAPSVFIFPPSDEQLKSGTASVVCLLNNFYPREAKVQWKVDNALQSGNSQESVTEQDSKDSTYSLSSTLTLSKADYEKHKVYACEVTHQGLSSPVTKSFNRGEC
heavy 2: not shown
light 2: B1 light 2
notes: also called anti-FVII(a)/anti-TLT-1 bispecific antibody of mAb0873 and mAb1076
B3: mAb0114 (antibody, human IgG4 S228P, kappa, V domains shown)
VH: DVQLQESGPGLVEPSQTLSLTCTVSGYSITSDSAWSWIRQFPGKKLEWMGYIQYSGSTNYNPSLKSRVTISRDTSKNQFSLKLSSVTAADTAVYYCARSVNYYGNSFAVGYWGQGTSVTVSS
VL: EIVLTQSPATLSLSPGERATLSCRASQGISDYLHWYQQKPGEAPRLLIKYTSQPATGIPARFSGSGSGTDFTLTISSLEPEDVGVYYCQNGHSFPLTFGAGTKLELKR
notes: humanized 11F2 variant, first round
B4: mAb0119 (antibody, human IgG4 S228P, kappa)
heavy: not shown
light: B1 light 1 with F83V, A84G, Q100A, I106L
notes: as for B3
B5: mAb0116 (antibody, human IgG4 S228P, kappa, V domains shown)
VH: B3 VH with A89E, G110D
VL: B3 VL
notes: as for B3
B6: mAb0125 (antibody, human IgG4 S228P, kappa, V domains shown)
VH: B3 VH with A89E
VL: B3 VL with G84A
notes: as for B3
B7: mAb0121 (antibody, human IgG4 S228P, kappa, V domains shown)
VH: B3 VH with A89E, Y111P
VL: B3 VL
notes: as for B3
B8: mAb0118 (antibody, human IgG4 S228P, kappa, V domains shown)
VH: B3 VH with M49I, A89E
VL: B3 VL
notes: as for B3
B9: mAb0120 (antibody, human IgG4 S228P, kappa, V domains shown)
VH: B3 VH with T30S, A89E
VL: B3 VL
notes: as for B3
B10: mAb0122 (antibody, human IgG4 S228P, kappa)
heavy: not shown
light: B1 light 1 with F83V, A84G, I106L
notes: as for B3
B11: mAb0124 (antibody, human IgG4 S228P, kappa, V domains shown)
VH: B3 VH with A89E
VL: B3 VL with E42Q
notes: as for B3
B12: mAb0129 (antibody, human IgG4 S228P, kappa, V domains shown)
VH: B3 VH with A89E
VL: B3 VL with T51A
notes: as for B3
B13: mAb0123 (antibody, human IgG4 S228P, kappa, V domains shown)
VH: B3 VH with A89E
VL: B3 VL with D31S
notes: as for B3
B14: mAb0115 (antibody, human IgG4 S228P, kappa, V domains shown)
VH: B3 VH with F41P, A89E
VL: B3 VL
notes: as for B3
B15: mAb0130 (antibody, human IgG4 S228P, kappa, V domains shown)
VH: B3 VH with A89E
VL: B3 VL with V83F
notes: as for B3
B16: mAb0117 (antibody, human IgG4 S228P, kappa, V domains shown)
VH: B3 VH with K45G, A89E
VL: B3 VL
notes: as for B3
B17: mAb0126 (antibody, human IgG4 S228P, kappa, V domains shown)
VH: B3 VH with A89E
VL: B3 VL with I29V
notes: as for B3
B18: mAb0128 (antibody, human IgG4 S228P, kappa, V domains shown)
VH: B3 VH with A89E
VL: B3 VL with P15A, P40S
notes: as for B3

Where a chain is given by its changes, count along the chain named.

One test deals with T1, recombinant human activated Factor VII (FVIIa) (human, UniProt P08709 61-212; P08709 213-466, ten glutamate residues of the Gla domain may be gamma-carboxylated).
T1 construct: chains tethered by a disulfide bond; also called Factor VIIa; rFVIIa
T1 sequence 1: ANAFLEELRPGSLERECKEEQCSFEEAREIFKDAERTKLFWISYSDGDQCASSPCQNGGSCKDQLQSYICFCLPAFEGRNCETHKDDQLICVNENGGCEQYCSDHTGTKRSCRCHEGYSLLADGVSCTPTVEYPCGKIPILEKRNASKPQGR
T1 sequence 2: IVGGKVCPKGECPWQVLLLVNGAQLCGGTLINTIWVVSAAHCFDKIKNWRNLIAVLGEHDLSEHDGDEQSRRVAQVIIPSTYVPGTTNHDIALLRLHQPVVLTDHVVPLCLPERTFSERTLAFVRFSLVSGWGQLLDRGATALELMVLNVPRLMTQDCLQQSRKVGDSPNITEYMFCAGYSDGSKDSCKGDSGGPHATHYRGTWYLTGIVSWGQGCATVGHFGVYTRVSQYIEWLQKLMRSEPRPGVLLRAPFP
Nature of the test: SPR (Biacore). A general note: In SPR one partner is held on a chip, and binding of the other changes the refractive index at the surface.
One may read the Kd as the equilibrium constant for the complex coming apart. As for B1, the Kd was 0.06 nM.

In the case of B2, the Kd was 600 nM.

Another test addresses T2, recombinant human activated Factor VII (FVIIa) (human, UniProt P08709 61-212; P08709 213-466, Gla domain: ten glutamate residues may be gamma-carboxylated).
T2 construct: two-chain form after cleavage between Arg152 and Ile153; light chain (Gla, EGF domains) and heavy chain (protease domain) tethered by a disulfide bond; also called rFVIIa; human FVIIa
T2 sequence 1: T1 sequence 1
T2 sequence 2: T1 sequence 2
The test is described as follows: Bio-Layer Interferometry (Fortebio), antibody on anti-human tips, FVIIa 25-200 nM. How it is done: All steps were performed in running buffer (20 mM HEPES buffer (pH 7.4), 150 mM NaCl, 5 mM CaCl2, 0.03% Tween 20, 1 mg/ml IgG-free BSA) at […] Antibodies were captured on anti-human tips (AHC, Fortebio) for 3 min at a concentration of 10 ug/ml. This was followed by a 3 min incubation to establish a baseline. Following this, association was monitored for 3 min using four different concentrations of VIIa (25 nm, 50 nM, 100 nM, and 200 nM), followed by a 3 mi dissociation. Sensorgrams were analysed using Fortebio data analysis software.
(In general: BLI is a label-free optical method that tracks binding on a fibre tip over time.)
As for B3, the Kd is 1.5 nM.

As to B4, the Kd came out at 1 nM.

As to B5, the dissociation constant Kd is 32 nM.

On to B6, for which the equilibrium dissociation constant (Kd) turned out to be 1.7 nM.

For B7, the Kd is 2 nM.

B8: the Kd was 1.7 nM.

As to B9, the Kd was determined as 1.7 nM.

Turning to B10, the equilibrium dissociation constant (Kd) amounted to 1.7 nM.

Consider B11, for which the equilibrium dissociation constant (Kd) came out at 1.8 nM.

Take B12: the dissociation constant (Kd) was 2.2 nM.

Turning to B13, the Kd was 5.8 nM.

In the case of B14, the Kd turned out to be 1.5 nM.

For B15, the Kd amounted to 1.8 nM.

With B16, the Kd is 1.4 nM.

On to B17, for which the Kd is 2.5 nM.

As for B18, the Kd came to 1.7 nM.
